The results in this text go back to PMC12700824.

Numbering of substitutions follows the chain as printed. In names and notes the source's numbering stands.

Test [1] addresses FAM118B-L32R, full length, tagged with mEGFP or with mCherry, Q9BPY3. In words: FCCS (fluorescence cross-correlation spectroscopy) in living U2OS cells. The conditions noted are these: chain shown with the change; mEGFP-F122R (green label) coexpressed with mCherry-L32R (red label); n = 15 cells per condition; read off a plot.
Test [2] addresses FAM118B-F122R, full length, tagged with mEGFP or with mCherry, Q9BPY3. The test is described as above. The following applies: chain shown with the change, n = 15 cells per condition, read off a plot.

B1: mEGFP–FAM118B WT (full-length human FAM118B fused at its N terminus to mEGFP), Q9BPY3 binder:F122R; target:L32R (protein)
chain: MASTGSQASDIDEIFGFFNDGEPPTKKPRKLLPSLKTKKPRELVLVIGTGISAAVAPQVPALKSWKGLIQALLDAAIDFDLLEDEESKKFQKCLHEDKNLVHVAHDLIQKLSPRTSNVRSTRFKDCLYEVFDDLESKMEDSGKQLLQSVLHLMENGALVLTTNFDNLLELYAADQGKQLESLDLTDEKKVLEWAQEKRKLSVLHIHGVYTNPSGIVLHPAGYQNVLRNTEVMREIQKLYENKSFLFLGCGWTVDDTTFQALFLEAVKHKSDLEHFMLVRRGDVDEFKKLRENMLDKGIKVISYGDDYADLPEYFKRLTCEISTRGTSAGMVREGQLNGSSAAHSEIRGCST
B1 displayed a response in test [1] of 88%.

B2: mEGFP–FAM118B WT (full-length human FAM118B fused at its N terminus to mEGFP), Q9BPY3 binder:F122R; target:F122R (protein)
chain: B1 chain
The molecule B2 came in with a response in test [2] (mEGFP-F122R (green label) coexpressed with mCherry-F122R (red label)) of 6%.

B3: mEGFP–FAM118B WT (full-length human FAM118B fused at its N terminus to mEGFP), Q9BPY3 binder:L32R; target:F122R (protein)
chain: B1 chain with L32R, R122F
B3 gave a response in test [2] (mEGFP-L32R (green label) coexpressed with mCherry-F122R (red label)) of 90%.
